Changes are numbered by the printed parent chain. In names and notes the source's numbering stands.
Assays:
TtPPO [1] = target: T1, TtPPO (Thermothelomyces thermophilus, UniProt G2QLD3, G312N/Y316V); assay: spectrophotometric oxidation assay, non-linear regression; conditions: 0.1 M sodium phosphate pH 7, 40 °C, 0-5 mM substrate
T1 sequence (G2QLD3 23-424 G312N/Y316V): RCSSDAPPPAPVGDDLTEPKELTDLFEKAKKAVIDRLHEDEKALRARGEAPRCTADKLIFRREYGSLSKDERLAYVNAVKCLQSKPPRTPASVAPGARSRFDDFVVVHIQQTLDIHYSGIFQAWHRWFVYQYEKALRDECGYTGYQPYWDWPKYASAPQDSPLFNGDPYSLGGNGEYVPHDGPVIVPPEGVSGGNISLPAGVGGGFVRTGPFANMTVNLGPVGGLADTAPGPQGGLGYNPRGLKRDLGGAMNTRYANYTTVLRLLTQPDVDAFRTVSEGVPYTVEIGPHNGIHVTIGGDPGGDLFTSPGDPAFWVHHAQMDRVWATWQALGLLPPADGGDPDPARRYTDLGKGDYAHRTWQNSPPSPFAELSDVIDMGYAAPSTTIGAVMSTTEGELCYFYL

TtPPO [2] = target: T2, TtPPO (Thermothelomyces thermophilus, UniProt G2QLD3, G312N/L326A); assay: as above; conditions: 0.1 M sodium phosphate pH 7, 40 °C, 0-5 mM substrate
T2 sequence (G2QLD3 23-424 G312N/L326A): T1 sequence (G2QLD3 23-424 G312N/Y316V) with V294Y, L304A

TtPPO [3] = target: T3, TtPPO (Thermothelomyces thermophilus, UniProt G2QLD3); assay: as above; conditions: 0.1 M sodium phosphate pH 7, 40 °C, 0-5 mM substrate
T3 sequence (G2QLD3 23-424): T1 sequence (G2QLD3 23-424 G312N/Y316V) with N290G, V294Y

TtPPO [4] = target: T4, TtPPO (Thermothelomyces thermophilus, UniProt G2QLD3, L326A); assay: as above; conditions: 0.1 M sodium phosphate pH 7, 40 °C, 0-5 mM substrate
T4 sequence (G2QLD3 23-424 L326A): T1 sequence (G2QLD3 23-424 G312N/Y316V) with N290G, V294Y, L304A

TtPPO [5] = target: T5, TtPPO (Thermothelomyces thermophilus, UniProt G2QLD3, Y316V); assay: as above; conditions: 0.1 M sodium phosphate pH 7, 40 °C, 0-5 mM substrate
T5 sequence (G2QLD3 23-424 Y316V): T1 sequence (G2QLD3 23-424 G312N/Y316V) with N290G

TtPPO [6] = target: T6, TtPPO (Thermothelomyces thermophilus, UniProt G2QLD3, G312N); assay: as above; conditions: 0.1 M sodium phosphate pH 7, 40 °C, 0-5 mM substrate
T6 sequence (G2QLD3 23-424 G312N): T1 sequence (G2QLD3 23-424 G312N/Y316V) with V294Y

purified protein [7] = substrate: COc1ccccc1O; assay: purified protein; conditions: 0.1 M sodium phosphate pH 7, 40 °C, 0-15 mM substrate
purified protein [8] = substrate: Oc1ccc(O)cc1; assay: purified protein; conditions: 0.1 M sodium phosphate pH 7, 40 °C, 0-70 mM substrate
purified protein [9] = substrate: Oc1ccccc1O; assay: purified protein; conditions: 0.1 M sodium phosphate pH 7, 40 °C, 0-60 mM substrate
purified protein [10] = substrate: Oc1cc(O)c2c(c1)O[C@H](c1ccc(O)c(O)c1)[C@@H](O)C2; assay: purified protein; conditions: 0.1 M sodium phosphate pH 7, 40 °C, 0-10 mM substrate
purified protein [11] = substrate: N[C@@H](Cc1ccc(O)c(O)c1)C(=O)O; assay: purified protein; conditions: 0.1 M sodium phosphate pH 7, 40 °C, 0-7 mM substrate

Molecule: Oc1ccc(Cl)cc1O [4-chlorocatechol]
- Km (TtPPO [1]): 4300 µM
- Km (TtPPO [2]): 500 µM
- Km (TtPPO [3]): 1800 µM
- Km (TtPPO [4]): 400 µM
- Km (TtPPO [5]): 2200 µM
- Km (TtPPO [6]): 3500 µM

B1: TtPPO (Thermothelomyces thermophilus ATCC 42464) (protein)
chain: T1 sequence (G2QLD3 23-424 G312N/Y316V) with N290G, V294Y
- Km (purified protein [7]): 4.6(0.6) mM
- kcat (purified protein [7]): 39.3(2.2) min^-1
- Km (purified protein [8]): 59.1(6.0) mM
- kcat (purified protein [8]): 67.5(3.9) min^-1
- Km (purified protein [9]): 32.5(4.3) mM
- kcat (purified protein [9]): 8.6(0.6) min^-1
- Km (purified protein [10]): 33.7(14.0) mM
- kcat (purified protein [10]): 1619.1(549.2) min^-1
- Km (purified protein [11]): 2.4(0.7) mM
- kcat (purified protein [11]): 4.3(0.5) min^-1

B2: TtPPO (Thermothelomyces thermophilus ATCC 42464; G312N) (protein)
chain: T1 sequence (G2QLD3 23-424 G312N/Y316V) with V294Y
- Km (purified protein [10]): 4.3(1.0) mM
- kcat (purified protein [10]): 2.9(0.3) min^-1

B3: TtPPO (Thermothelomyces thermophilus ATCC 42464; G312N/L326A) (protein)
chain: T1 sequence (G2QLD3 23-424 G312N/Y316V) with V294Y, L304A
- Km (purified protein [10]): 4.3(0.3) mM
- kcat (purified protein [10]): 337.9(11.2) min^-1

B4: TtPPO (Thermothelomyces thermophilus ATCC 42464; L326A) (protein)
chain: T1 sequence (G2QLD3 23-424 G312N/Y316V) with N290G, V294Y, L304A
- Km (purified protein [10]): 2.8(0.5) mM
- kcat (purified protein [10]): 415.0(35.1) min^-1

B5: TtPPO (Thermothelomyces thermophilus ATCC 42464; Y316V) (protein)
chain: T1 sequence (G2QLD3 23-424 G312N/Y316V) with N290G
- Km (purified protein [10]): 9.7(2.4) mM
- kcat (purified protein [10]): 547.3(84.6) min^-1

B6: TtPPO (Thermothelomyces thermophilus ATCC 42464; G312N/Y316V) (protein)
chain: T1 sequence (G2QLD3 23-424 G312N/Y316V)
- Km (purified protein [10]): 10.3(0.8) mM
- kcat (purified protein [10]): 33.3(1.7) min^-1

Reference: doi:10.1101/2021.02.26.433144v1 (biorxiv, 2021)
